Measured values: patent publication US20220363770A1
Substitutions are numbered along the chain they refer to.

B1: anti-CGRP receptor variant 05, yeast-displayed Fab (Fab, V domains shown)
VH: QVQLVESGGGVVQPGRSLRLSCAASGFTFSSFGMHWVRQAPGKGLEWVAVISFDGSIKYSVDSVKGRFTISRDNSKNTLFLQMNSLRAEDTAVYYCARDRLNYYESSGYYHYKYYGMAVWGQGTTVTVSS
VL: QSVLTQPPSVSAAPGQKVTISCSGSFSNIGRSTVSWYQQLPGTAPKLLIYDNRWRAGGIPDRFSGSKSGTSATLGITGLQTGDEADYYCGTWDYQWKAVVFGGGTKLTVLG
B2: anti-CGRP receptor variant 12, yeast-displayed Fab (Fab, V domains shown)
VH: B1 VH
VL: B1 VL with F26R, S32Y, T33S, W54Y, G57Q, Y94W, Q95A, W96T, K97T, A98S
B3: 4E4.2 parental Fab, yeast-displayed (Fab, V domains shown)
VH: B1 VH
VL: QSVLTQPPSVSAAPGQKVTISCSGSSSNIGNNYVSWYQQLPGTAPKLLIYDNNKRPSGIPDRFSGSKSGTSATLGITGLQTGDEADYYCGTWDSRLSAVVFGGGTKLTVLG

Key:
[1] = target: human PAC1 receptor extracellular domain (ECD) (human) (UniProt P41586); test: yeast-displayed Fab, FACS, 10 nM PAC1 receptor ECD
Chain of human PAC1 receptor extracellular domain (ECD) (human) (P41586 24-153): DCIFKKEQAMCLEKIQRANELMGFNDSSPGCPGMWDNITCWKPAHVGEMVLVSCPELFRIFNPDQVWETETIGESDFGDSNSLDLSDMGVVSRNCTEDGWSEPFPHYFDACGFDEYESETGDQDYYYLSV

[2] = target: human CGRP receptor extracellular domain (ECD) (human) (UniProt Q16602); test: yeast-displayed Fab, FACS, 1 nM human CGRP receptor ECD
Chain of human CGRP receptor extracellular domain (ECD) (human) (Q16602 23-138 limits assumed, chain 1 of 2): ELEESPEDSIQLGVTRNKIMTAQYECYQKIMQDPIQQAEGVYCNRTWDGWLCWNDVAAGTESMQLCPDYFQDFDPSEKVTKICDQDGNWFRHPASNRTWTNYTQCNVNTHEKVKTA
Chain of human CGRP receptor extracellular domain (ECD) (human) (chain, as listed by the source limits assumed, chain 2 of 2): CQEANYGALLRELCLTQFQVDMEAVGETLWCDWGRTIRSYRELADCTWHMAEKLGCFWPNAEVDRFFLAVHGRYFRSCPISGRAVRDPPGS

[3] = target: human CGRP receptor extracellular domain (ECD) (human) (UniProt Q16602); test: yeast-displayed Fab, FACS, 10 nM human CGRP receptor ECD

Binder	Mutant vs. 4E4.2 Parent B/D Ratio [1]	Normalized Binding Signal/Display Signal (B/D) [1]	Mutant vs. 4E4.2 Parent B/D Ratio [2]	Normalized Binding Signal/Display Signal (B/D) [2]	Mutant vs. 4E4.2 Parent B/D Ratio [3]	Normalized Binding Signal/Display Signal (B/D) [3]
B1	1.8 fold	0.2				
B2	1.8 fold	0.19				
B3	1 fold	0.11	1 fold	0.12	1 fold	0.15
